B1: Pistol ribozyme (parent)
chain: GGGUCGUUGUUCCAUAAUCGCGUGGAUAUGGCACGCAAGUUUCUACCGGGCACCGUAAAUGUCCGACUGGAGCCGUUCGGGCGGCUAUAAACAGACCUCAGGCCCGAAGCGUGGCGGCACCUGCCGCCGGUGGUAAAAAAGAUCGGAAGAGCACACGUCU

Variants of: B1
Test: aptazyme ON/OFF ratio, guanine; higher = stronger switching; co-transcriptional cleavage with and without guanine

Going from U7G G9A U10A C12A C13U to U7G G9A U10A C12A C13A, the “aptazyme ON/OFF ratio” value falls from 1.28 to 1.06.

Compared with U7G G9A U10A U11G C12U C13U, U7G G9A U10A U11G C12U C13G is lower in “aptazyme ON/OFF ratio” value: 1.11 for the first, 1.09 for the second.

Going from U7G G9A U10A U11G C12U C13A to U7G C12U C13U, the “aptazyme ON/OFF ratio” value rises from 1.07 to 1.36.

First: U7G G9C U10A U11G
Second: U7G G9C U10A U11A
The “aptazyme ON/OFF ratio” value of the first is higher: 3.08 for the first, 2.95 for the second.

First: U7G G9C U10A U11C
Second: U7G G9A U10A U11G C12A
The “aptazyme ON/OFF ratio” value of the first is higher: 1.17 for the first, 1.13 for the second.

Compared with U7G G9A U10A U11G C12U, U7G G9A U10A U11G C12G is lower in “aptazyme ON/OFF ratio” value: 1.24 for the first, 1.13 for the second.

First: U7G G9A U10G U11A C12G C13A
Second: U7G G9A U10G U11A C12G C13G
The “aptazyme ON/OFF ratio” value of the first is higher: 1.12 for the first, 1.11 for the second.

First: U7G G9A U10G U11A C12G C13U
Second: U7G G9A U10C C12G
The “aptazyme ON/OFF ratio” value of the first is lower: 1.05 for the first, 1.38 for the second.

First: U7G G9A U10C C12U
Second: U7G G9A U10C C12A
The “aptazyme ON/OFF ratio” value of the first is higher: 1.59 for the first, 1.28 for the second.

Compared with U7G G9C C12U C13U, U7G G9C C12U C13A is lower in “aptazyme ON/OFF ratio” value: 1.33 for the first, 1.3 for the second.

Compared with U7G G9C C12U C13G, U7G G9A is higher in “aptazyme ON/OFF ratio” value: 1.18 for the first, 4.35 for the second.

First: U7G G9C
Second: U7G G9A C12U C13U
The “aptazyme ON/OFF ratio” value of the first is higher: 2.85 for the first, 1.18 for the second.

Going from U7G G9A C12U C13G to U7G G9A C12U C13A, the “aptazyme ON/OFF ratio” value falls from 1.15 to 1.14.

First: U7G G9A U10G C12G C13U
Second: U7G G9A U10G C12G C13G
The “aptazyme ON/OFF ratio” value of the first is lower: 1.07 for the first, 1.12 for the second.

Compared with U7G G9A U10G C12G C13A, U7G G9A U11C C12U is higher in “aptazyme ON/OFF ratio” value: 1.1 for the first, 1.39 for the second.

First: U7G G9A U11C C12G
Second: U7G G9A U11C C12A
The “aptazyme ON/OFF ratio” value of the first is lower: 1.27 for the first, 1.34 for the second.

First: U7G G9A U10C U11A C12U
Second: U7G G9A U10C U11A C12G
The “aptazyme ON/OFF ratio” value of the first is higher: 1.18 for the first, 1.15 for the second.

First: U7G G9A U10C U11A C12A
Second: U7G G9A C12A
The “aptazyme ON/OFF ratio” value of the first is lower: 1.1 for the first, 1.25 for the second.

First: U7G G9A C12U
Second: U7G G9A C12G
The “aptazyme ON/OFF ratio” value of the first is higher: 1.41 for the first, 1.2 for the second.

First: U7G G9C U10A
Second: U7G G9A U10A U11G C13G
The “aptazyme ON/OFF ratio” value of the first is higher: 3.1 for the first, 1.13 for the second.

Compared with U7G G9A U10A U11G C13A, U7G G9A U10A U11G C13U is higher in “aptazyme ON/OFF ratio” value: 1.09 for the first, 1.14 for the second.

Going from U7G G9A U10C U11G C13A to U7G G9A U10C U11G C13G, the “aptazyme ON/OFF ratio” value rises from 1.09 to 1.17.

First: U7G G9A U10C U11G C13U
Second: U7G G9A U10C C13A
The “aptazyme ON/OFF ratio” value of the first is higher: 1.14 for the first, 1.11 for the second.

First: U7G G9A U10C C13U
Second: U7G G9A U10C C13G
The “aptazyme ON/OFF ratio” value of the first is higher: 1.44 for the first, 1.08 for the second.

Compared with U7G G9A U10C U11G C12G C13A, U7G G9A U10C U11G C12G C13U is lower in “aptazyme ON/OFF ratio” value: 1.09 for the first, 1.06 for the second.

Going from U7G G9A U10C U11G C12G C13G to U7G G9C U10A U11C C13U, the “aptazyme ON/OFF ratio” value rises from 1.06 to 1.14.

First: U7G G9C U10A U11C C13A
Second: U7G G9C U10A U11C C13G
The “aptazyme ON/OFF ratio” value of the first is higher: 1.21 for the first, 1.09 for the second.

First: U7G G9C U10A C12G C13U
Second: U7G G9C U10A C12G C13A
The “aptazyme ON/OFF ratio” value of the first is higher: 1.28 for the first, 1.1 for the second.

Going from U7G G9C U10A C12G C13G to U7G G9A U11G C12U C13U, the “aptazyme ON/OFF ratio” value rises from 1.1 to 1.2.

Going from U7G G9A U11G C12U C13G to U7G G9A U11G C12U C13A, the “aptazyme ON/OFF ratio” value falls from 1.11 to 1.09.

Going from U7G G9A U11A to U7G G9A U11C, the “aptazyme ON/OFF ratio” value falls from 2.46 to 1.17.

Going from U7G G9A U11G to U7G G9A U10C, the “aptazyme ON/OFF ratio” value rises from 1.64 to 3.35.

Going from U7G G9A U10A to U7G G9A U10G, the “aptazyme ON/OFF ratio” value falls from 3.3 to 1.19.

First: U7G G9C U10A U11C C12U C13G
Second: U7G G9C U10A U11C C12U C13A
The “aptazyme ON/OFF ratio” value of the first is lower: 1.19 for the first, 1.33 for the second.

Compared with U7G G9C U10A U11C C12U C13U, U7G G9A U11C C13G is lower in “aptazyme ON/OFF ratio” value: 1.18 for the first, 1.09 for the second.

Going from U7G G9A U11C C13U to U7G G9A U11C C13A, the “aptazyme ON/OFF ratio” value falls from 1.14 to 1.11.

Going from U7G G9A U10A C13A to U7G G9A U10A C13U, the “aptazyme ON/OFF ratio” value rises from 1.07 to 1.28.

Compared with U7G G9A U10A C13G, U7G G9A U10C C12U C13G is higher in “aptazyme ON/OFF ratio” value: 1.06 for the first, 1.15 for the second.

Compared with U7G G9A U10C C12U C13U, U7G G9A U10C C12U C13A is lower in “aptazyme ON/OFF ratio” value: 1.19 for the first, 1.18 for the second.

First: U7G G9A U11A C13U
Second: U7G G9A U11A C13A
The “aptazyme ON/OFF ratio” value of the first is higher: 1.2 for the first, 1.14 for the second.

Compared with U7G G9A U11A C13G, U7G G9A U10C U11C C12U C13U is lower in “aptazyme ON/OFF ratio” value: 1.1 for the first, 1.07 for the second.

Compared with U7G G9A U10C U11C C12U C13G, U7G G9A U10C U11C C12U C13A is higher in “aptazyme ON/OFF ratio” value: 1.04 for the first, 1.05 for the second.
